Test results reported in patent US12698507B2, “Methods and compositions for conferring and/or enhancing herbicide tolerance using protoporphyrinogen IX oxidase of various cyanobacteria or variant thereof” (FarmHannong Co., Ltd., priority 2019, dated 2026).

B1: CyPPO19 V165C + A167L + F360T: variant of CyPPO19 PPO protein (SEQ ID NO: 1) (protein)
chain: MSEVDVAIVGGGLSGLSLAWRLQQSAPQYSVVLLEASDRLGGNITTQTAEGFVWELGPNSFAPTPALLQLIAEVGLQSELIRGDRHLPRYIYWRGQLYPLQPTRPLALATSNLLSPWGKVRAALGALGFVPPYLGSGDESVNSFFRRHLGQEVAERLVAPFVSGCYLGDPQQLSAAAAFRRIAQLEKLGGGLIAGALHLRRQQAPKPKPPTSVQMRPGELGSFKEGLAALPRAIAQQLKAPIHLQTPVQEITPDPKGGYLLRSGEQTWRARSVVLATPAYQTAELVAPFQPAIARVLATIPYPTVACVVLAYPAGLGRSVRPGFGVLIPRSQGIRTLGTIWSSCLFPQRTPAGWQVFTSTIGGATDPDLASLSEEAIVQQVQQDLNRLLDLPAAKARLLGMKVWRRAIPQYMVGYPEQWQQVTHALSQTPGLFLCSNYAEGVALGDRVEHGNRTAAAVAAYLSGGQP
modifications: Synthetic_PPO of Thermosynechococcus elongatus PKUAC-SCTE542 (comprising GenBank No. CP032152.1)
B2: CyPPO19 V165C + V305M + F360I: variant of CyPPO19 PPO protein (SEQ ID NO: 1) (protein)
chain: MSEVDVAIVGGGLSGLSLAWRLQQSAPQYSVVLLEASDRLGGNITTQTAEGFVWELGPNSFAPTPALLQLIAEVGLQSELIRGDRHLPRYIYWRGQLYPLQPTRPLALATSNLLSPWGKVRAALGALGFVPPYLGSGDESVNSFFRRHLGQEVAERLVAPFVSGCYAGDPQQLSAAAAFRRIAQLEKLGGGLIAGALHLRRQQAPKPKPPTSVQMRPGELGSFKEGLAALPRAIAQQLKAPIHLQTPVQEITPDPKGGYLLRSGEQTWRARSVVLATPAYQTAELVAPFQPAIARVLATIPYPTMACVVLAYPAGLGRSVRPGFGVLIPRSQGIRTLGTIWSSCLFPQRTPAGWQVFTSIIGGATDPDLASLSEEAIVQQVQQDLNRLLDLPAAKARLLGMKVWRRAIPQYMVGYPEQWQQVTHALSQTPGLFLCSNYAEGVALGDRVEHGNRTAAAVAAYLSGGQP
modifications: Synthetic_PPO of Thermosynechococcus elongatus PKUAC-SCTE542 (comprising GenBank No. CP032152.1)
B3: CyPPO19 V165C + V305M + F360V: variant of CyPPO19 PPO protein (SEQ ID NO: 1) (protein)
chain: MSEVDVAIVGGGLSGLSLAWRLQQSAPQYSVVLLEASDRLGGNITTQTAEGFVWELGPNSFAPTPALLQLIAEVGLQSELIRGDRHLPRYIYWRGQLYPLQPTRPLALATSNLLSPWGKVRAALGALGFVPPYLGSGDESVNSFFRRHLGQEVAERLVAPFVSGCYAGDPQQLSAAAAFRRIAQLEKLGGGLIAGALHLRRQQAPKPKPPTSVQMRPGELGSFKEGLAALPRAIAQQLKAPIHLQTPVQEITPDPKGGYLLRSGEQTWRARSVVLATPAYQTAELVAPFQPAIARVLATIPYPTMACVVLAYPAGLGRSVRPGFGVLIPRSQGIRTLGTIWSSCLFPQRTPAGWQVFTSVIGGATDPDLASLSEEAIVQQVQQDLNRLLDLPAAKARLLGMKVWRRAIPQYMVGYPEQWQQVTHALSQTPGLFLCSNYAEGVALGDRVEHGNRTAAAVAAYLSGGQP
modifications: Synthetic_PPO of Thermosynechococcus elongatus PKUAC-SCTE542 (comprising GenBank No. CP032152.1)
B4: CyPPO19 V165S + V305L + F360L: variant of CyPPO19 PPO protein (SEQ ID NO: 1) (protein)
chain: MSEVDVAIVGGGLSGLSLAWRLQQSAPQYSVVLLEASDRLGGNITTQTAEGFVWELGPNSFAPTPALLQLIAEVGLQSELIRGDRHLPRYIYWRGQLYPLQPTRPLALATSNLLSPWGKVRAALGALGFVPPYLGSGDESVNSFFRRHLGQEVAERLVAPFVSGSYAGDPQQLSAAAAFRRIAQLEKLGGGLIAGALHLRRQQAPKPKPPTSVQMRPGELGSFKEGLAALPRAIAQQLKAPIHLQTPVQEITPDPKGGYLLRSGEQTWRARSVVLATPAYQTAELVAPFQPAIARVLATIPYPTLACVVLAYPAGLGRSVRPGFGVLIPRSQGIRTLGTIWSSCLFPQRTPAGWQVFTSLIGGATDPDLASLSEEAIVQQVQQDLNRLLDLPAAKARLLGMKVWRRAIPQYMVGYPEQWQQVTHALSQTPGLFLCSNYAEGVALGDRVEHGNRTAAAVAAYLSGGQP
modifications: Synthetic_PPO of Thermosynechococcus elongatus PKUAC-SCTE542 (comprising GenBank No. CP032152.1)

System: PPO-deficient BT3 E. coli (ΔPPO)
Experiment: PPO-inhibiting herbicide tolerance test of PPO variants in E. coli (growth on herbicide-containing LB agar)
Type: cell-based
Settings: CyPPO19 variants in BT3 (ΔPPO) E. coli; LB agar with 0 to 2,000 μM herbicide, 37° C., dark, 16-20 hours
Outline: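 Tolerance was scored against wild-type enzyme: '−' for equal growth, one '+' per 10-fold gain, up to '+++++'. ΔPPO BT3 cells carrying variant plasmids, spotted as a 10-fold dilution series from OD600=0.5, grew 16-20 h at 37° C. in the dark on ampicillin LB agar containing 0 to 2,000 μM herbicide.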

Molecule | tolerance level relative to wild type, Carfentrazone | tolerance level relative to wild type, Flumioxazin | tolerance level relative to wild type, Fomesafen | tolerance level relative to wild type, Oxyfluorfen | tolerance level relative to wild type, Saflufenacil | tolerance level relative to wild type, Sulfentrazone | tolerance level relative to wild type, Tiafenacil
B1 | + (‘+’ per each 10-fold resistance) | +++ (‘+’ per each 10-fold resistance) | ++ (‘+’ per each 10-fold resistance) | + (‘+’ per each 10-fold resistance) | +++ (‘+’ per each 10-fold resistance) | +++ (‘+’ per each 10-fold resistance) | ++++ (‘+’ per each 10-fold resistance)
B2 | + (‘+’ per each 10-fold resistance) | +++++ (until ‘+++++’ as maximal resistance) | ++ (‘+’ per each 10-fold resistance) | ++ (‘+’ per each 10-fold resistance) | +++++ (until ‘+++++’ as maximal resistance) | +++ (‘+’ per each 10-fold resistance) | +++++ (until ‘+++++’ as maximal resistance)
B3 | + (‘+’ per each 10-fold resistance) | +++++ (until ‘+++++’ as maximal resistance) | ++ (‘+’ per each 10-fold resistance) | +++ (‘+’ per each 10-fold resistance) | +++++ (until ‘+++++’ as maximal resistance) | ++++ (‘+’ per each 10-fold resistance) | +++++ (until ‘+++++’ as maximal resistance)
B4 | + (‘+’ per each 10-fold resistance) | +++++ (until ‘+++++’ as maximal resistance) | +++ (‘+’ per each 10-fold resistance) | +++ (‘+’ per each 10-fold resistance) | +++++ (until ‘+++++’ as maximal resistance) | +++++ (until ‘+++++’ as maximal resistance) | +++++ (until ‘+++++’ as maximal resistance)
